Measured values reported in patent US20210180049A1 (CHUGAI SEIYAKU KABUSHIKI KAISHA, priority 2013, published 2021).

B1: ATNLSA1-4_D12: ATP/adenosine-binding antibody; heavy-chain variable region SEQ ID NO: 48, light-chain variable region SEQ ID NO: 49 (antibody, listed as Homo sapiens, V domains shown)
VH: QVQLQESGGDLVKPGGFLRLSCAASGFTFNTYTMNWVRQAPGKGLEWLSSISSRSNYINYADSVKGRFTISRDNAKNSLYLQMNSLRAEDTAVYYCARFGRKGDLNWVFDYWGQGTLVTVSS
VL: QSALTQPPSASGSPGQTVTISCTGTSSDVGGYNYVSWYQQHPGKAPKLMIYEVSKRPSGVPDRFSGSKSGNTASLTVSGLQAEDEADYFCSSYAGSNNVVFGGGTKLTVL
B2: SMB0002: rabbit B cell cloning antibody binding adenosine and ATP; heavy chain SEQ ID NO: 30, light chain SEQ ID NO: 31 (antibody, listed as Oryctolagus cuniculus)
heavy: CQSVEESGGRLVTPGTPLTLTCTVSGIDLSNYAMGWVRQAPGKGLEWIGIIGADSSTWYPSWVKGRFTISKTSTTVDLKMTSLTTEDTATYFCARGRFVGYTNAFDPWGPGTLVTVSS
light: AQVLTQTPSSVSAAVGGTVTISCQSSQSVWNNNYLSWYQQKPGQPPKLLIFDASTLASGVPSRFSGRGSGTQFTLTISGVQCEDAATYYCHGSYANSGWYDNAFGGGTEVVVK

Legend:
[1] = SPR (Biacore T200) binding of D12 to ADP; conditions: Biacore T200, 15° C., 500 mM NaCl
Experimental: (§1) Sensor chip CM5 or CM4 (GE Healthcare) was immobilized with an appropriate amount of protein A (Life technologies) by amine coupling. The antibody of interest was captured by the chip to allow interaction with ATP (Wako), adenosine (Wako), or ADP (adenosine diphosphate) (Wako) as an antigen. The running buffer used was 50 mM Tris-HCl (Takara, T903), 500 mM NaCl, 0.01% (w/v) Tween20. The antigen was allowed to interact for 30 seconds at a flow rate of 30 μl/min, and was dissociated for 30 seconds. The interaction with the antigen was assessed at 15° C. The antigen was diluted using the same running buffer.
(§2) The dissociation constant KD (M) was calculated based on the association rate constant ka (1/Ms) and dissociation rate constant kd (l/s), both of which are kinetic parameters calculated from the sensorgram obtained by the measurement. Alternatively, the dissociation constant KD (M) was calculated using steady state analysis. Each parameter was calculated using the Biacore T200 Evaluation Software (GE Healthcare).

[2] = competitive phage ELISA with ATP; format: binding; conditions: ATP from equal amount up to 10000 times that of the antigen
Experimental: ATNLSA1-4_D12 and PF1 were each diluted with TBS and subjected to ELISA by the following procedure.
A StreptaWell 96 microtiter plate (Roche) was coated at room temperature for one hour with 100 μl of TBS containing biotin-labeled antigens (a mixture of 5′-adenosine-PEG-biotin and ATP-PEG-biotin). After the antigens were removed by washing each well of the plate with TBST, the wells were blocked with 250 μl of 2% skim milk/TBS for one hour or more. 2% skim milk/TBS was removed, and then the prepared, purified phages were added to each well. The plate was allowed to stand at room temperature for one hour to allow binding of the antibody-displaying phages to the antigens in each well. […] For the competition of the immobilized antigen with ATP, the plate was allowed to stand at room temperature for one hour. Then, after TBST wash, an HRP-conjugated anti-M13 antibody (Amersham Pharmacia Biotech) diluted with TBS was added to each well. The plate was incubated for one hour. Following TBST wash, the TMB single solution (ZYMED) was added to each well. The chromogenic reaction in the solution of each well was terminated by adding sulfuric acid. Then, the developed color was assessed by measuring absorbance at 450 nm.

[3] = phage ELISA for binding to ATP-PEG-biotin
Experimental: (§3) Next, for the purpose of confirming to which antigen of 2′-adenosine-PEG-biotin, 5′-adenosine-PEG-biotin, and ATP-PEG-biotin these clones have binding ability, the purified phages diluted with TBS were subjected to ELISA by the following procedure. A StreptaWell 96 microtiter plate (Roche) was coated at room temperature for one hour with 100 μl of TBS containing a biotin-labeled antigen (2′-adenosine-PEG-biotin, 5′-adenosine-PEG-biotin, or ATP-PEG-biotin). After the antigens were removed by washing each well of the plate with TBST, the wells were blocked with 250 μl of 2% skim milk/TBS for one hour or more. 2% skim milk/TBS was removed, and then the prepared, purified phages were added to each well. The plate was allowed to stand at room temperature for one hour to allow binding of antibody-displaying phages to antigens in each well. After TBST wash, a HRP-conjugated anti-M13 antibody (Amersham Pharmacia Biotech) diluted with TBS was added to each well. The plate was incubated for one hour. Following TBST wash, the TMB single solution (ZYMED) was added to each well. The chromogenic reaction in the solution of each well was terminated by adding sulfuric acid. Then, the developed color was assessed by measuring absorbance at 450 nm.

[4] = SPR (Biacore T200) binding of D12 and ATNLSA1-4_D12 variants to ATP; conditions: Biacore T200, 15° C., 500 mM NaCl
Experimental: as §1, §2
Based on the assay result, the affinity of each variant for ATP was calculated as a KD value. […]
It was determined that amino acids substituted at the sites could be included in a library (flexible residues to be introduced into a library).

[5] = SPR (Biacore T200) binding of D12 and variants to adenosine; conditions: Biacore T200, 15° C., corrected with 20 μmo1/1 ADP, Formula 2
Experimental: as §1, §2
To calculate the KD for adenosine, the binding response was assessed at various concentrations of adenosine in the presence or absence of 20 μmo1/1 ADP. In addition, the binding response was separately assessed in the presence of 20 μmo1/1 ADP. […]

[6] = phage ELISA for binding to 5′-adenosine-PEG-biotin
Experimental: as §3

[7] = SPR binding of SMB0002 to AMP; conditions: Biacore; read-out: KD of SMB0002 toward AMP
Experimental: Binding of SMB0002 was assessed at AMP concentrations of 500, 250 (duplicate), 125, 62.5, 31.25, 15.625, and 7.8125 μM.

[8] = competitive ELISA of 2′-Adenosine-PEG-Biotin-binding clones with adenosine and ATP; conditions: 50 nM 2′-Adenosine-PEG-Biotin with 500 μM adenosine or ATP; absorbance at 405 nm
Experimental: To immobilize the antibodies, the plate was allowed to stand for one hour or more at room temperature. After the antibodies diluted with PBS were removed from each well, TBS containing 1% BSA was added thereto and the plate was allowed to stand for one hour or more. Then, the TBS (pH 7.4) containing 1% BSA was removed from the plate. 2′-Adenosine-PEG-Biotin diluted to 50 nM with PBS, a mixture of 2′-Adenosine-PEG-Biotin and adenosine diluted to 50 nM and 500 μM respectively with PBS, a mixture of 2′-Adenosine-PEG-Biotin and ATP diluted to 50 nM and 500 μM respectively with PBS, or PBS alone was added to the plate. The plate was allowed to stand at room temperature for one hour, and then washed three times with 80 μl of PBS containing 0.05% Tween-20. Then, Streptavidin-HRP (Thermo fisher scientific) diluted 20000 times with PBS was added to each well, and the plate was allowed to stand for one hour or more at room temperature. After the plate was washed three times with 80 μl of PBS containing 0.05% Tween-20, a chromogenic substrate (ABTS peroxidase substrate) was added to each well. After the plate was incubated for one hour, color development in the solution of each well was assessed by measuring absorbance at 405 nm using SpectraMax from Molecular Device.

[9] = SPR binding of SMB0002 to ADP; conditions: Biacore, NaCl concentration 600 mM; read-out: KD of SMB0002 toward ADP
Experimental: Binding to ADP was assessed by a method similar to the measurement method using Biacore described in Example 3-2, except that the NaCl concentration was changed to 600 mM. Binding of SMB0002 was assessed at ADP concentrations of 2000, 1000 (duplicate), 500, 250, 250, 125, 62.5, and 31.3 μM.

[10] = SPR (Biacore T200) binding of SMB0002 to ATP; conditions: Biacore T200, 25° C., antibody captured on protein A/G; read-out: KD of SMB0002 toward ATP
Experimental: Biacore T200 (GE Healthcare) was used to analyze interaction in the antigen-antibody reaction with ATP. The antibody of interest was captured onto protein A/G (Invitrogen) immobilized in an appropriate amount onto Sensor chip CM5 (GE Healthcare) by the amine coupling method, and ATP which is the antigen was allowed to interact. The running buffer used was 10 mmol/L ACES, 150 mmol/L NaCl, 0.05% (w/v) Tween 20, pH 7.4. All measurements were carried out at 25° C. The antigen was diluted with running buffer.
(§4) Then, running buffer was run at a flow rate of 20 μL/min for three minutes and dissociation of the antigen from the antibody was observed. Next, 10 mmol/L glycine-HCl, pH 1.5, was injected at a flow rate of 30 μL/min for 30 seconds to regenerate the sensor chip. Kinetic parameters such as the association rate constant ka (1/Ms) and the dissociation rate constant kd (l/s) were calculated based on the sensorgrams obtained by the measurements. The dissociation constant KD (M) was calculated from these constants. Each parameter was calculated using the Biacore T200 Evaluation Software (GE Healthcare).

[11] = SPR (Biacore T200) binding of SMB0002 to adenosine; conditions: Biacore T200, 25° C., antibody captured on protein A; read-out: KD of SMB0002 toward adenosine
Experimental: Using Biacore T200 (GE Healthcare), the antibody SMB0002 obtained by the B cell cloning method was analyzed for its interaction with adenosine in antigen-antibody reaction. Sensor chip CM5 (GE Healthcare) was immobilized with an appropriate amount of protein A (Invitrogen) by amine coupling. Antibodies of interest were captured by the chip to allow interaction to adenosine as an antigen. The running buffer used was 50 mmol/1 TrisHCl, 150 mmol/1 NaCl, 0.02% (w/v) Tween20, pH 7.6. All measurements were carried out at 25° C. The antigens were diluted using the running buffer.
as §4, with “of 30” for “of 20”, “for four” for “for three”, “was loaded” for “was injected”

Experimental for Tm measurement by DSC: Measurement by DSC was carried out by a method known to those skilled in the art.
DSC measurement was carried out by a method known to those skilled in the art.

| Molecule | Kd [1] [µM] | binding to biotin-labeled antigen with ATP as competitor [2] | binding to ATP-PEG-biotin [3] | Tm (Tm measurement by DSC) [°C] | Kd [4] [µM] | Kd [5] [µM] | binding to 5′-Adenosine-PEG-biotin [6] | Kd [7] [µM] | binding to 2′-Adenosine-PEG-Biotin on adding excess amounts of adenosine and ATP [8] | Kd [9] [µM] | Kd [10] [µM] | Kd [11] [µM] |
| --- | --- | --- | --- | --- | --- | --- | --- | --- | --- | --- | --- | --- |
| B1 | 0.25 | inhibited in an ATP concentration-dependent manner | ability to bind | 74.37 | 8.5 | 1100 | ability to bind |  |  |  |  |  |
| B2 |  |  |  |  |  |  |  | 59 | inhibited | 240 | 10 | 0.015 |
